Patent US5695963

Assays:
[1] = target: mouse aryl hydrocarbon receptor nuclear transport protein (ARNT) (mouse) (UniProt P53762)
[2] = system: EPAS1/ARNT heterodimer (cotransfected) (Homo sapiens (EPAS1) / Mus musculus? (ARNT)); test: cell_activity; details: ARNT-deficient c4 cells; EPAS1 alone 1.8-fold; Hepa1c1c7 with EPAS1 9-fold
[3] = target: HIF-1alpha (Homo sapiens) (UniProt Q16665); test: cell_activity; details: 293 cells, larger amounts of plasmid
EPAS1 (Homo sapiens) = EPAS1 (Homo sapiens) (UniProt Q99814); test: cell_activity; details: 293 cells, endogenous ARNT
EPAS1 (Homo sapiens), sequence (Q99814 whole entry A60E): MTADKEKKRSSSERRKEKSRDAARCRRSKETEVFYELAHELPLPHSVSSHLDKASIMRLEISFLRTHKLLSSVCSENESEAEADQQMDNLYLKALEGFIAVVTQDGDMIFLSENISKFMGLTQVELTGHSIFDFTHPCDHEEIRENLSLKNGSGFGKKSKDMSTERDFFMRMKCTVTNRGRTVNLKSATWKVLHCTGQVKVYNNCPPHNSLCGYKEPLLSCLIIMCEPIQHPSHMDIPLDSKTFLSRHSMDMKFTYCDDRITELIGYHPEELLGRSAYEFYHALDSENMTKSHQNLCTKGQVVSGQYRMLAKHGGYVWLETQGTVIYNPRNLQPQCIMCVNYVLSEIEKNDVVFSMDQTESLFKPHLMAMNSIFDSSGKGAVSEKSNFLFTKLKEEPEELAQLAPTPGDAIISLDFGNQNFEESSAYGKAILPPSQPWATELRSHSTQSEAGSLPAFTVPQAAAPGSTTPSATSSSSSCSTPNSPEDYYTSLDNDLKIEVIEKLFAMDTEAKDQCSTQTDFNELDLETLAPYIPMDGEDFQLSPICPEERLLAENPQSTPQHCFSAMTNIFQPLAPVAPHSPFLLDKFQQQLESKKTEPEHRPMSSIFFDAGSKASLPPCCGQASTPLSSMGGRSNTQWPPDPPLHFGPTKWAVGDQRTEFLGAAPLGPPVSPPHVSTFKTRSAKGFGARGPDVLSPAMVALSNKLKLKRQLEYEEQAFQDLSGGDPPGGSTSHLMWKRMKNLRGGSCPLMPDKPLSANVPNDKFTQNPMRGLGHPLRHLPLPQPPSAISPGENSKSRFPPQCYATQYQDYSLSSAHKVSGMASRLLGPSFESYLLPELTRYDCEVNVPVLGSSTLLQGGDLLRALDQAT

HIF-1alpha (Homo sapiens), sequence (Q16665 whole entry): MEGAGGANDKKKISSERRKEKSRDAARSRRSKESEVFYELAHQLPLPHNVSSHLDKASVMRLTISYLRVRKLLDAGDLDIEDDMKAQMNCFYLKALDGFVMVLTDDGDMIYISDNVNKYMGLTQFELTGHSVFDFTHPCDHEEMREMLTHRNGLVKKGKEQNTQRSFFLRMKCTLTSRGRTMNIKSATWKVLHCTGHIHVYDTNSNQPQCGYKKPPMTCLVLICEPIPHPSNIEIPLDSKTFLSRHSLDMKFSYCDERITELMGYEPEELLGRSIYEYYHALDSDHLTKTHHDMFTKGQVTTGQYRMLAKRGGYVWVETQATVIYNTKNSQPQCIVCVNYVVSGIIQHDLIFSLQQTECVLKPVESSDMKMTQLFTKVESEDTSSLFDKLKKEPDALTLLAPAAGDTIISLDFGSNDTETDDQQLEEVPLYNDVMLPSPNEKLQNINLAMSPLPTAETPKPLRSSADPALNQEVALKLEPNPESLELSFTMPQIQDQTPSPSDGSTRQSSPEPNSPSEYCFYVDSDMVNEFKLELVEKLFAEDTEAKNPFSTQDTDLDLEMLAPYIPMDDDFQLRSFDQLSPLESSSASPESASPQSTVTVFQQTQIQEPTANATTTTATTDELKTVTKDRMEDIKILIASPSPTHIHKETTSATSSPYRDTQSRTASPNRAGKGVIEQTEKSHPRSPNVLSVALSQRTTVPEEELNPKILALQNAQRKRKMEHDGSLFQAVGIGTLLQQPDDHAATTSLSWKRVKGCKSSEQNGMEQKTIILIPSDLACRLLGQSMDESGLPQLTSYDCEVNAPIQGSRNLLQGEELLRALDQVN

luciferase activity of the pRE-Elb-LUC reporter in ARNT-deficient c4 hepatoma cells [1] [fold]	Substance	activity (fold induction) [2]	activity (fold induction) [3]	activity (fold induction) (EPAS1 (Homo sapiens))
12	human EPAS1 protein			
	three copies of 50-nt EPO hypoxia-inducible enhancer in luciferase reporter	12	7	12
